The values below come from doi:10.1101/2024.04.26.591336.

The target of the test is NOTCH2^ΔERA-TurboID (human). Description: proximity labelling.

On to “endogenous human NOTCH2 (from UniProt Q04721 26-2471) (natural protein)”, for which the Log2FC NICD2RA-vs-NICD2 was -2.03 Log2FC and the percent of the NOTCH2 recovered, NICD2RA against NICD2 was 13%.
